Experimental data: the supplement of paper PMC12458215
± gives the uncertainty stated by the source.

Test system: HEK293T
Test: plasma membrane surface immunostaining intensity (anti-HA, deep receptor scanning) (arbitrary fluorescence units); higher = higher plasma membrane expression

Row | Sequence | plasma membrane surface immunostaining intensity (GPCR class: A (Olfactory)) | other results
1 | MFLYLCFIFQRTCSEEMEEENATLLTEFVLTGFLHQPDCKIPLFLAFLVIYLITIMGNLGLIVLIWKDPHLHIPMYLFLGSLAFVDASLSSTVTPKMLINFLAKSKMISLSECMVQFFSLVTTVTTECFLLATMAYDRYVAICKALLYPVIMTNELCIQLLVLSFIGGLLHALIHEAFSFRLTFCNSNIIQHFYCDIIPLLKISCTDSSINFLMVFIFAGSVQVFTIGTILISYTIILFTILEKKSIKGIRKAVSTCGAHLLSVSLYYGPLTFKYLGSASPQADDQDMMESLFYTVIVPLLNPMIYSLRNKQVIASFTKMFKSNV [OR5H6] | 123 ± 24 | –
2 | MFRQEQPLAEGSFAPMGSLQPDAGNASWNGTEAPGGGARATPYSLQVTLTLVCLAGLLMLLTVFGNVLVIIAVFTSRALKAPQNLFLVSLASADILVATLVIPFSLANEVMGYWYFGKAWCEIYLALDVLFCTSSIVHLCAISLDRYWSITQAIEYNLKRTPRRIKAIIITVWVISAVISFPPLISIEKKGGGGGPQPAEPRCEINDQKWYVISSCIGSFFAPCLIMILVYVRIYQIAKRRTRVPPSRRGPDAVAAPPGGTERRPNGLGPERSAGPGGAEAEPLPTQLNGAPGEPAPAGPRDTDALDLEESSSSDHAERPPGPRRPERGPRGKGKARASQVKPGDSLPRRGPGATGIGTPAAGPGEERVGAAKASRWRGRQNREKRFTFVLAVVIGVFVVCWFPFFFTYTLTAVGCSVPRTLFKFFFWFGYCNSSLNPVIYTIFNHDFRRAFKKILCRGDRKRIV [ADRA2A] | – | plasma membrane surface immunostaining intensity (GPCR class: A): 2600 ± 560
3 | MFSPWKISMFLSVREDSVPTTASFSADMLNVTLQGPTLNGTFAQSKCPQVEWLGWLNTIQPPFLWVLFVLATLENIFVLSVFCLHKSSCTVAEIYLGNLAAADLILACGLPFWAITISNNFDWLFGETLCRVVNAIISMNLYSSICFLMLVSIDRYLALVKTMSMGRMRGVRWAKLYSLVIWGCTLLLSSPMLVFRTMKEYSDEGHNVTACVISYPSLIWEVFTNMLLNVVGFLLPLSVITFCTMQIMQVLRNNEMQKFKEIQTERRATVLVLVVLLLFIICWLPFQISTFLDTLHRLGILSSCQDERIIDVITQIASFMAYSNSCLNPLVYVIVGKRFRKKSWEVYQGVCQKGGCRSEPIQMENSMGTLRTSISVERQIHKLQDWAGSRQ [BDKRB2] | – | plasma membrane surface immunostaining intensity (GPCR class: A): 664 ± 47
4 | MGDNITSIREFLLLGFPVGPRIQMLLFGLFSLFYVFTLLGNGTILGLISLDSRLHAPMYFFLSHLAVVDIAYACNTVPRMLVNLLHPAKPISFAGRMMQTFLFSTFAVTECLLLVVMSYDLYVAICHPLRYLAIMTWRVCITLAVTSWTTGVLLSLIHLVLLLPLPFCRPQKIYHFFCEILAVLKLACADTHINENMVLAGAISGLVGPLSTIVVSYMCILCAILQIQSREVQRKAFRTCFSHLCVIGLVYGTAIIMYVGPRYGNPKEQKKYLLLFHSLFNPMLNPLICSLRNSEVKNTLKRVLGVERAL [OR2A4] | 123 ± 3.7 | –
5 | MGDNITSITEFLLLGFPVGPRIQMLLFGLFSLFYVFTLLGNGTILGLISLDSRLHAPMYFFLSHLAVVDIAYACNTVPRMLVNLLHPAKPISFAGRMMQTFLFSTFAVTECLLLVVMSYDLYVAICHPLRYLAIMTWRVCITLAVTSWTTGVLLSLIHLVLLLPLPFCRPQKIYHFFCEILAVLKLACADTHINENMVLAGAISGLVGPLSTIVVSYMCILCAILQIQSREVQRKAFCTCFSHLCVIGLFYGTAIIMYVGPRYGNPKEQKKYLLLFHSLFNPMLNPLICSLRNSEVKNTLKRVLGVERAL [OR2A7] | 117 ± 27 | –
6 | MGDWNNSDAVEPIFILRGFPGLEYVHSWLSILFCLAYLVAFMGNVTILSVIWIESSLHQPMYYFISILAVNDLGMSLSTLPTMLAVLWLDAPEIQASACYAQLFFIHTFTFLESSVLLAMAFDRFVAICHPLHYPTILTNSVIGKIGLACLLRSLGVVLPTPLLLRHYHYCHGNALSHAFCLHQDVLRLSCTDARTNSIYGLCVVIATLGVDSIFILLSYVLILNTVLDIASREEQLKALNTCVSHICVVLIFFVPVIGVSMVHRFGKHLSPIVHILMADIYLLLPPVLNPIVYSVRTKQIRLGILHKFVLRRRF [OR51L1] | 274 ± 150 | –
7 | MGENQTMVTEFLLLGFLLGPRIQMLLFGLFSLFYIFTLLGNGAILGLISLDSRLHTPMYFFLSHLAVVDIAYTRNTVPQMLANLLHPAKPISFAGCMTQTFLCLSFGHSECLLLVLMSYDRYVAICHPLRYSVIMTWRVCITLAVTSWTCGSLLALAHVVLILRLPFSGPHEINHFFCEILSVLRLACADTWLNQVVIFAACVFFLVGPPSLVLVSYSHILAAILRIQSGEGRRKAFSTCSSHLCVVGLFFGSAIIMYMAPKSRHPEEQQKVFFLFYSFFNPTLNPLIYSLRNGEVKGALRRALGKESHS [OR2A1] | 106 ± 11 | –
8 | MGFLSPMHPCRPPTQRRMAAGNHSTVTEFILKGLTKRADLQLPLFLLFLGIYLVTIVGNLGMITLICLNSQLHTPMYYFLSNLSLMDLCYSSVITPKMLVNFVSEKNIISYAGCMSQLYFFLVFVIAECYMLTVMAYDRYVAICHPLLYNIIMSHHTCLLLVAVVYAIGLIGSTIETGLMLKLPYCEHLISHYFCDILPLMKLSCSSTYDVEMTVFFSAGFNIIVTSLTVLVSYTFILSSILGISTTEGRSKAFSTCSSHLAAVGMFYGSTAFMYLKPSTISSLTQENVASVFYTTVIPMLNPLIYSLRNKEVKAAVQKTLRGKLF [OR8A1] | 191 ± 82 | –
9 | MGGRVFLAFCVWLTLPGAETQDSRGCARWCPQNSSCVNATACRCNPGFSSFSEIITTPTETCDDINECATPSKVSCGKFSDCWNTEGSYDCVCSPGYEPVSGAKTFKNESENTCQDVDECQQNPRLCKSYGTCVNTLGSYTCQCLPGFKFIPEDPKVCTDVNECTSGQNPCHSSTHCLNNVGSYQCRCRPGWQPIPGSPNGPNNTVCEDVDECSSGQHQCDSSTVCFNTVGSYSCRCRPGWKPRHGIPNNQKDTVCEDMTFSTWTPPPGVHSQTLSRFFDKVQDLGRDSKTSSAEVTIQNVIKLVDELMEAPGDVEALAPPVRHLIATQLLSNLEDIMRILAKSLPKGPFTYISPSNTELTLMIQERGDKNVTMGQSSARMKLNWAVAAGAEDPGPAVAGILSIQNMTTLLANASLNLHSKKQAELEEIYESSIRGVQLRRLSAVNSIFLSHNNTKELNSPILFAFSHLESSDGEAGRDPPAKDVMPGPRQELLCAFWKSDSDRGGHWATEGCQVLGSKNGSTTCQCSHLSSFAILMAHYDVEDWKLTLITRVGLALSLFCLLLCILTFLLVRPIQGSRTTIHLHLCICLFVGSTIFLAGIENEGGQVGLRCRLVAGLLHYCFLAAFCWMSLEGLELYFLVVRVFQGQGLSTRWLCLIGYGVPLLIVGVSAAIYSKGYGRPRYCWLDFEQGFLWSFLGPVTFIILCNAVIFVTTVWKLTQKFSEINPDMKKLKKARALTITAIAQLFLLGCTWVFGLFIFDDRSLVLTYVFTILNCLQGAFLYLLHCLLNKKVREEYRKWACLVAGGSKYSEFTSTTSGTGHNQTRALRASESGI [ADGRE5] | – | plasma membrane surface immunostaining intensity (GPCR class: B): 6420 ± 110
10 | MGGRVFLVFLAFCVWLTLPGAETQDSRGCARWCPQDSSCVNATACRCNPGFSSFSEIITTPMETCDDINECATLSKVSCGKFSDCWNTEGSYDCVCSPGYEPVSGAKTFKNESENTCQDVDECQQNPRLCKSYGTCVNTLGSYTCQCLPGFKLKPEDPKLCTDVNECTSGQNPCHSSTHCLNNVGSYQCRCRPGWQPIPGSPNGPNNTVCEDVDECSSGQHQCDSSTVCFNTVGSYSCRCRPGWKPRHGIPNNQKDTVCEDMTFSTWTPPPGVHSQTLSRFFDKVQDLGRDYKPGLANNTIQSILQALDELLEAPGDLETLPRLQQHCVASHLLDGLEDVLRGLSKNLSNGLLNFSYPAGTELSLEVQKQVDRSVTLRQNQAVMQLDWNQAQKSGDPGPSVVGLVSIPGMGKLLAEAPLVLEPEKQMLLHETHQGLLQDGSPILLSDVISAFLSNNDTQNLSSPVTFTFSHRSVIPRQKVLCVFWEHGQNGCGHWATTGCSTIGTRDTSTICRCTHLSSFAVLMAHYDVQEEDPVLTVITYMGLSVSLLCLLLAALTFLLCKAIQNTSTSLHLQLSLCLFLAHLLFLVAIDQTGHKVLCSIIAGTLHYLYLATLTWMLLEALYLFLTARNLTVVNYSSINRFMKKLMFPVGYGVPAVTVAISAASRPHLYGTPSRCWLQPEKGFIWGFLGPVCAIFSVNLVLFLVTLWILKNRLSSLNSEVSTLRNTRMLAFKATAQLFILGCTWCLGILQVGPAARVMAYLFTIINSLQGVFIFLVYCLLSQQVREQYGKWSKGIRKLKTESEMHTLSSSAKADTSKPSTVN [ADGRE2] | – | plasma membrane surface immunostaining intensity (GPCR class: B): 6310 ± 78
